Data taken from patent publication US20260116960A1 (SHANGHAI HONGCHENG BIOPHARMACEUTICAL, published 2026).

Assays:
[1] = molecular target: human PD-1 protein (Acro, PD1-H5257) (human, UniProt Q15116 25-167); assay: competitive ELISA, PD-1 coated, biotin-PD-L1 as labelled ligand
[2] = molecular target: T1, human CTLA-4 on the cell surface (human, UniProt P16410 36-223); assay: flow cytometry competition, 293T-hPD-1-hCTLA-4 cells (PD-1 co-expressed), biotin-human CD80
T1 construct: whole, on cells; also called CHO-hCTLA-4 cells; CHOK1-hCTLA4 cells

[3] = molecular target: T2, Biotinylated Human VEGF165 (Acro, Catalog No. VE5-H82Q0) (human, UniProt P15692-4 27-191, biotinylated (site not stated)); assay: flow cytometry: antibody titrated on 293T-hPD-1-hCTLA-4 cells, detected with 2 ug/mL biotin-hVEGF165 and PE streptavidin
T2 construct: Bought protein; also called Biotinylated-hVEGF165; Biotin-hVEGF165
Procedure: After centrifugation at 300 g for 5 minutes, the supernatant was discarded, and 100 μL of trispecific antibody solution serially diluted 3-fold with FACS buffer was added, with a starting concentration of 200 nM, and the same volume of FACS buffer was added as a negative control. After mixing, incubated at 4° C. for 60 minutes. After centrifugation and washing three times with FACS buffer, 2 μg/mL Biotin-hVEGF165 was added at 100 μL/well and incubated at 4° C. for 60 minutes. After centrifugation and washing three times with FACS buffer, 100 μL/well of 1:800 diluted PE Streptavidin (BD, Catalog No.: 554061) was added and incubated at 4° C. for 50 minutes. After centrifugation and washing three times with FACS buffer, 100 μL/well of FACS buffer was added to resuspend the cells, and the fluorescence signal was detected on a flow cytometer (BECKMAN COULTER cytoFLEX). The binding activity was fitted using a four-parameter model, and the EC₅₀ value of each antibody binding was calculated.

[4] = molecular target: T3, human VEGF165-his protein (Acro, Catalog No. VE5-H5248) (human, UniProt P15692-4 27-191); assay: competitive ELISA, VEGF165-His coated, biotin-human KDR
T3 construct: Bought protein; also called hVEGF165-His; VEGFA; not shown: his tag

[5] = molecular target: T1, human CTLA-4 on the cell surface; assay: flow cytometry competition, CHO-hCTLA-4 cells, biotin-human CD80
Procedure: CHO-hCTLA-4 cells were obtained by trypsin digestion, washed twice with PBS containing 2% FBS (FACS buffer), and resuspended in FACS buffer. 200 μL of the cells were added to a 96-well U-bottom plate, approximately 2×10⁵ cells/well. After centrifugation at 300 g for 5 minutes, the supernatant was discarded. […] After washing three times with FACS buffer, 100 μL/well of 1:800 diluted PE Streptavidin was added and incubated at 4° C. for 50 min. After washing three times with FACS buffer, 150 μL/well of PBS was added to resuspend the cells, and the fluorescence signal was detected on a flow cytometer (BECKMAN COULTER cytoFLEX). The four-parameter model was used to fit the binding activity and the IC₅₀ value of the blocking activity of each antibody was calculated.

[6] = molecular target: T2, Biotinylated Human VEGF165 (Acro, …); assay: flow cytometry: antibody titrated on 293T-hPD-1 cells, then mixture of biotin-hVEGF165 and hCTLA4-mFc; PE streptavidin signal; VEGF signal after binding to cell surface PD-1
Procedure: (§1) 200 μL/well of the cells were added to a 96-well U-bottom plate. After centrifugation at 300 g for 5 minutes, the supernatant was discarded and 100 μL of antibody solution serially diluted with FACS buffer was added to each well in triplicate (with starting concentration of 200 nM, 3-fold serial dilution, and the same volume of FACS buffer was used as a negative control). Mixed well and incubated at 4° C. for 60 min. After washing the plate three times with FACS buffer, a mixture consisting of 1 μg/mL Biotin-hVEGF165 and 1 μg/mL hCTLA4-mFc (DIMA BIOTECH, Catalog No.: PME100017) in a 1:1 volume ratio was added to each well at 100 μL/well to detect the simultaneously binding activity of the trispecific antibodies to CTLA-4 and VEGF after binding to cell surface PD-1. […] After washing the plate three times with FACS buffer, 100 μL/well of PBS solution was added to resuspend the cells, and the fluorescence signal was detected on a flow cytometer (BECKMAN COULTER cytoFLEX). The binding activity was fitted using a four-parameter model, and the EC₅₀ value of each antibody was calculated.

[7] = molecular target: T4, hCTLA4-mFc (DIMA BIOTECH, Catalog No. PME100017) (human, UniProt P16410 36-161, limits assumed); assay: flow cytometry: antibody titrated on 293T-hPD-1 cells, then mixture of biotin-hVEGF165 and hCTLA4-mFc; AF647 anti-mIgG signal; CTLA-4 signal after binding to cell surface PD-1
T4 construct: Bought protein; also called human CTLA-4 mouse Fc fusion; not shown: mouse Fc (mFc)
Procedure: as §1

T1 sequence (P16410 36-223): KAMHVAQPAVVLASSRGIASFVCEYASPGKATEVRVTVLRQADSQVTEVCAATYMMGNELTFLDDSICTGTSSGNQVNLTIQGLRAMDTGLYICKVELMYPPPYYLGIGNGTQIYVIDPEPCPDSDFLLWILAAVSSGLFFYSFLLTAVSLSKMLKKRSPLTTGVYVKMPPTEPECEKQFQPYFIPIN
T2 sequence (P15692 other isoform, or with tags, fused parts or gaps limits assumed): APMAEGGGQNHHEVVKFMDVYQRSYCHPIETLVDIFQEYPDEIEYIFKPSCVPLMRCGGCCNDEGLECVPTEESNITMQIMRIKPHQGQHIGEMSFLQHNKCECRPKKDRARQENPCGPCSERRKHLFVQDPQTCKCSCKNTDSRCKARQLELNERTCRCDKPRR
human PD-1 protein (Acro, PD1-H5257), sequence (Q15116 25-167 limits assumed): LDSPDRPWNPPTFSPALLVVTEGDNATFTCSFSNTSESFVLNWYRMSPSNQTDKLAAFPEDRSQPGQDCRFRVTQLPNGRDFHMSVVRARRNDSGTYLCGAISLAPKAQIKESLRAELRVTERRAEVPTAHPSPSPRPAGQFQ
T4 sequence (P16410 36-161 limits assumed): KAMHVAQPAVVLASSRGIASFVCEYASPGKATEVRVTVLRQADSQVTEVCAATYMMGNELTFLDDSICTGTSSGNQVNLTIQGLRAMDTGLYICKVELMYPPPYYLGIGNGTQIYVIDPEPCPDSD
T3 sequence (P15692 other isoform, or with tags, fused parts or gaps limits assumed): as the sequence (P15692 other isoform, or with tags, fused parts or gaps limits assumed) above

| IC50 [1] [nM] | IC50 [2] [nM] | EC50 [3] [nM] | IC50 [4] [nM] | IC50 [5] [nM] | EC50 [6] [nM] | EC50 [7] [nM] | Binder |
| --- | --- | --- | --- | --- | --- | --- | --- |
| 0.923 | ~0.002 | 4.2 | – | – | – | – | HC010-F9 (trispecific antibody, human IgG4 S228P, kappa, light: CQ1-3/1-11 VL-kappa; also called H010-F9) heavy: not shown light: DIQMTQSPSSLSASVGDRVTITCRASESVDNYGISFMNWYQQKPGKAPKLLIYAASNQGSGVPSRFSGSGSGTDFTLTISSLQPEDFATYYCQQSKEVPWTFGGGTKVEIKRTVAAPSVFIFPPSDEQLKSGTASVVCLLNNFYPREAKVQWKVDNALQSGNSQESVTEQDSKDSTYSLSSTLTLSKADYEKHKVYACEVTHQGLSSPVTKSFNRGEC |
| 0.837 | 0.056 | 4.9 | 6.76 | 22.6 | 2.83 | 3.32 | HC010-F10 (trispecific antibody, human IgG4 S228P, kappa, light: CQ1-3/1-11 VL-kappa; also called H010-F10) heavy: not shown light: DIQMTQSPSSLSASVGDRVTITCRASESVDNYGISFMNWYQQKPGKAPKLLIYAASNQGSGVPSRFSGSGSGTDFTLTISSLQPEDFATYYCQQSKEVPWTFGGGTKVEIKRTVAAPSVFIFPPSDEQLKSGTASVVCLLNNFYPREAKVQWKVDNALQSGNSQESVTEQDSKDSTYSLSSTLTLSKADYEKHKVYACEVTHQGLSSPVTKSFNRGEC |
